Test results as given in the supplement of paper PMC11246515.
± gives the standard deviation of the averaged measurements.

Test: total protein half-life in vivo (active degradation + dilution); higher = more stable protein
[1] = E. coli NCM3722 delta-clpP delta-lon delta-hslV, growth: N-lim chemostat, doubling time 6 h
[2] = E. coli NCM3722 delta-clpP, growth: N-lim chemostat, doubling time 6 h
[3] = E. coli NCM3722 delta-hslV, growth: N-lim chemostat, doubling time 6 h
[4] = E. coli NCM3722 delta-lon, growth: N-lim chemostat, doubling time 6 h
[5] = E. coli NCM3722 delta-smpB, growth: N-lim chemostat, doubling time 6 h
[6] = wild type E. coli NCM3722, growth: C-lim chemostat, doubling time 3 h
[7] = wild type E. coli NCM3722, growth: C-lim chemostat, doubling time 6 h
[8] = wild type E. coli NCM3722, growth: C-lim chemostat, doubling time 12 h
[9] = wild type E. coli NCM3722, growth: N-lim chemostat, doubling time 6 h
[10] = wild type E. coli NCM3722, growth: N-lim chemostat, doubling time 12 h
[11] = wild type E. coli NCM3722, growth: P-lim chemostat, doubling time 6 h
[12] = wild type E. coli NCM3722, growth: P-lim chemostat, doubling time 12 h

Row | Sequence | total protein half-life in vivo [1] | total protein half-life in vivo [2] | total protein half-life in vivo [3] | total protein half-life in vivo [4] | total protein half-life in vivo [5] | total protein half-life in vivo [6] | total protein half-life in vivo [7] | total protein half-life in vivo [8] | total protein half-life in vivo [9] | total protein half-life in vivo [10] | total protein half-life in vivo [11] | total protein half-life in vivo [12]
1 | MPNITWCDLPEDVSLWPGLPLSLSGDEVMPLDYHAGRSGWLLYGRGLDKQRLTQYQSKLGAAMVIVAAWCVEDYQVIRLAGSLTARATRLAHEAQLDVAPLGKIPHLRTPGLLVMDMDSTAIQIECIDEIAKLAGTGEMVAEVTERAMRGELDFTASLRSRVATLKGADANILQQVRENLPLMPGLTQLVLKLETLGWKVAIASGGFTFFAEYLRDKLRLTAVVANELEIMDGKFTGNVIGDIVDAQYKAKTLTRLAQEYEIPLAQTVAIGDGANDLPMIKAAGLGIAYHAKPKVNEKAEVTIRHADLMGVFCILSGSLNQK [P0AGB0] | 5.32 ± 0.097 h | 5.09 ± 0.32 h | 5.09 ± 0.31 h | 5.43 ± 0.31 h | 5.08 ± 0.26 h | 3.01 ± 0.1 h | 5.07 ± 0.26 h | 10.3 ± 0.85 h | 4.819 ± 0.032 h | 8.79 ± 0.6 h | 5.83 ± 0.23 h | 11.5 ± 0.32 h
2 | MPNIVLSRIDERLIHGQVGVQWVGFAGANLVLVANDEVAEDPVQQNLMEMVLAEGIAVRFWTLQKVIDNIHRAADRQKILLVCKTPADFLTLVKGGVPVNRINVGNMHYANGKQQIAKTVSVDAGDIAAFNDLKTAGVECFVQGVPTEPAVDLFKLL | – | – | – | – | – | 3.26 h | 5.07 ± 0.6 h | 8.17 h | – | – | – | –
3 | MPQHDQLHRYLFENFAVRGELVTVSETLQQILENHDYPQPVKNVLAELLVATSLLTATLKFDGDITVQLQGDGPMNLAVINGNNNQQMRGVARVQGEIPENADLKTLVGNGYVVITITPSEGERYQGVVGLEGDTLAACLEDYFMRSEQLPTRLFIRTGDVDGKPAAGGMLLQVMPAQNAQQDDFDHLATLTETIKTEELLTLPANEVLWRLYHEEEVTVYDPQDVEFKCTCSRERCADALKTLPDEEVDSILAEDGEIDMHCDYCGNHYLFNAMDIAEIRNNASPADPQVH [P0A6Y5] | 4.77 ± 0.4 h | 4.06 ± 0.058 h | 4.35 ± 0.87 h | 4.6 ± 0.6 h | 3.55 ± 0.12 h | 1.924 ± 0.015 h | 3.85 ± 0.11 h | 7.32 ± 0.54 h | 4.02 ± 0.13 h | 6.02 ± 0.22 h | 4.51 ± 0.073 h | 9.18 ± 2 h
4 | MPQISRYSDEQVEQLLAELLNVLEKHKAPTDLSLMVLGNMVTNLINTSIAPAQRQAIANSFARALQSSINEDKAH [P0AD24] | 6.24 ± 0.65 h | 4.76 h | 5.69 ± 0.2 h | 4.63 ± 1.3 h | 4.16 ± 1.4 h | 2.99 ± 0.041 h | 5.16 ± 0.18 h | 10.1 ± 0.73 h | 3.54 ± 0.42 h | 9.19 h | 5.83 h | 10.4 h
5 | MPQQIELRNIALQAAQPLVHGVSLTLQRGRVLALVGGSGSGKSLTCAATLGILPAGVRQTAGEILADGKPVSPCALRGIKIATIMQNPRSAFNPLHTMHTHARETCLALGKPADDATLTAAIEAVGLENAARVLKLYPFEMSGGMLQRMMIAMAVLCESPFIIADEPTTDLDVVAQARILDLLESIMQKQAPGMLLVTHDMGVVARLADDVAVMSDGKIVEQGDVETLFNAPKHTVTRSLVSAHLALYGMELAS | 4.47 h | – | – | – | – | – | – | – | – | – | – | –
6 | MPQQNYLDELTPAFTSLLAIKEASRCLLCHDAPCSQACPAQTDPGKFIRSIYFRNFKGAAETIRENNALGAVCARVCPTEKLCQSGCTRAGVDAPIDIGRLQRFVTDFEQQTGMEIYQPGTKTLGKVAIIGAGPAGLQASVTLTNQGYDVTIYEKEAHPGGWLRNGIPQFRLPQSVLDAEIARIEKMGVTIKCNNEVGNTLTLEQLKAENRAVLVTVGLSSGSGLPLFEHSDVEIAVDFLQRARQAQGDISIPQSALIIGGGDVAMDVASTLKVLGCQAVTCVAREELDEFPASEKEFTSARELGVSIIDGFTPVAVEGNKVTFKHVRLSGELTMAADKIILAVGQHARLDAFAELEPQRNTIKTQNYQTRDPQVFAAGDIVEGDKTVVYAVKTGKEAAEAIHHYLEGACSC | > 8 h | – | – | – | – | 1.14 ± 0.029 h | 1.42 ± 0.22 h | 2.52 ± 1.1 h | – | – | – | –
7 | MPQRILVLGASGYIGQHLVRTLSQQGHQILAAARHVDRLAKLQLANVSCHKVDLSWPDNLPALLQDIDTVYFLVHSMGEGGDFIAQERQVALNVRDALREVPVKQLIFLSSLQAPPHEQSDHLRARQATADILREANVPVTELRAGIIVGAGSAAFEVMRDMVYNLPVLTPPRWVRSRTTPIALENLLHYLVALLDHPASEHRIFEAAGPEVLSYQQQFEHFMAVSGKRRWLIPIPLPTRWISVWFLNVITSVPPTTARALIQGLKHDLLADDTALRALIPQRLIAFDDAVRSTLKEEEKLVNSSDWGYDAQAFARWRPEYGYFAKQAGFTVKTSASLAALWQVVNQIGGKERYFFGNILWQTRALMDRAIGHKLAKGRPEREYLQTGDAVDSWKVIVVEPEKQLTLLFGMKAPGLGRLCFSLEDKGDYRTIDVRAFWHPHGMPGLFYWLLMIPAHLFIFRGMAKQIARLAEQSTD | – | 6.7 ± 0.22 h | 6.57 ± 0.8 h | 6.64 ± 0.098 h | 6.11 ± 0.37 h | 2.94 ± 0.081 h | 5.88 ± 0.11 h | 12.1 ± 2.1 h | 6.42 ± 0.19 h | 11.8 ± 0.4 h | 5.23 ± 0.016 h | 11.1 ± 0.83 h
